The text below walks through data of article PMC8092228 (mBio, 2021).

The experiment deals with LOV-PAS-HK construct of Brucella abortus LOV-HK (residues 15 to 489), called the full-length protein (Brucella abortus). The experiment can be described thus: SEC with static light scattering (SEC-SLS).

Sequence of LOV-PAS-HK construct of Brucella abortus LOV-HK (residues 15 to 489), called the full-length protein (enzyme) (A9MBM8 15-489 limits assumed): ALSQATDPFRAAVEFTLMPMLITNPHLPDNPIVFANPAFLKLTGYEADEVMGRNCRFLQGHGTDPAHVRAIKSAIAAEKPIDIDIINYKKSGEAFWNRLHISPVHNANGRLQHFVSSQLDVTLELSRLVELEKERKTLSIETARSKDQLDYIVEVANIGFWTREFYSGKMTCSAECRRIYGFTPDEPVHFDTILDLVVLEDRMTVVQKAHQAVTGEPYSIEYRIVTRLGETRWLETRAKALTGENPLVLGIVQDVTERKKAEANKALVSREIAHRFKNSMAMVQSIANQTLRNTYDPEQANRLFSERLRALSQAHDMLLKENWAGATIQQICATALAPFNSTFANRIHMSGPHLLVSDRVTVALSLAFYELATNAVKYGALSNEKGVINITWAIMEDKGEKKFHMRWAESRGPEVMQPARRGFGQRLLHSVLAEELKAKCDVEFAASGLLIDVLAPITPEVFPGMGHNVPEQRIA

Consider “LOV-PAS-HK construct of Brucella abortus LOV-HK (residues 15 to 489), called the full-length protein (enzyme)”, for which the stoichiometry N was 2.
